Reference: patent US20200093883A1 (XIGEN INFLAMMATION, published 2020)
Square brackets hold non-standard residues; d marks the D form. Ends that are not written are not given here.

Target: c-Jun N-terminal kinase (JNK) in primary mouse cortical neurons (mouse)
Assay: cell-based or functional assay

B1: JNK inhibitor according to SEQ ID NO: 172 ("XG-104") (peptide)
peptide: [dR]KKR[dR]QRR[dR]RP[dK]RP[dA]TLNL[dF]-NH2
modifications: N-terminus assumed
SMILES: CC(C)C[C@H](NC(=O)[C@H](CC(N)=O)NC(=O)[C@H](CC(C)C)NC(=O)[C@@H](NC(=O)[C@@H](C)NC(=O)[C@@H]1CCCN1C(=O)[C@H](CCCNC(=N)N)NC(=O)[C@@H](CCCCN)NC(=O)[C@@H]1CCCN1C(=O)[C@H](CCCNC(=N)N)NC(=O)[C@@H](CCCNC(=N)N)NC(=O)[C@H](CCCNC(=N)N)NC(=O)[C@H](CCCNC(=N)N)NC(=O)[C@H](CCC(N)=O)NC(=O)[C@@H](CCCNC(=N)N)NC(=O)[C@H](CCCNC(=N)N)NC(=O)[C@H](CCCCN)NC(=O)[C@H](CCCCN)NC(=O)[C@H](N)CCCNC(=N)N)[C@@H](C)O)C(=O)N[C@H](Cc1ccccc1)C(N)=O
JNK activity (ratio pJNK/JNK, immunoblot), neurons exposed to 2 µM Aβ42, pre-treatment with 5 µM XG-104: decrease: 29.2%
JNK activity (ratio pJNK/JNK, immunoblot), neurons exposed to 2 µM Aβ42, pre-treatment with 10 µM XG-104: decrease: 60%
JNK activity (ratio pJNK/JNK, immunoblot), neurons exposed to 25 µM Aβ42, pre-treatment with 5 µM XG-104: decrease: 17.5%
JNK activity (ratio pJNK/JNK, immunoblot), neurons exposed to 25 µM Aβ42, pre-treatment with 10 µM XG-104: decrease: 59.6%
